Results on 41 sequences are retold here after the nanobody polyreactivity screen of Harvey et al. (2022).

A short description of the data set: yeast display, Sf9 membrane polyspecificity reagent, FACS + sequencing; frameworks hold sequencing errors. The essentials: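 Nanobodies came from a synthetic yeast display library in Saccharomyces cerevisiae BJ5465, induced with galactose for 36–48 hours and stained for 1 hour at 4 °C with 10% biotinylated, detergent-solubilized Sf9 membrane reagent. Cells were enriched on streptavidin microbeads and then FACS-sorted, with low and high (top ~1%) gates set on anti-HA fluorescence for expression and streptavidin fluorescence for reagent binding. Each polyreactivity label reflects the gate a clone came from. Genes were amplified by colony PCR, sequenced by MiSeq 2 × 250 and filtered by CDR length.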
In the case of “QVQLVESGGGLVQAGGSLRLSCAASGSIFDFYAMGCYRQAPGKERELVAAISGSGGSTYYADSVKGRFTMSRDNAKNTVYLQMNSLKPEDTAVYYCSYYYWGQRTQVTVSS”, the “polyreactivity (PSR sort gate)” value was “low polyreactivity”.

In the case of “QVQLVESGGGLVQAGGSLRLSCAASGSIFDFYAMGWYRQAAGKERELVASITGRGGSTYYADSVKGRFSISRDKAKNTVYFQMNSLKPEDTAVYYCAAATFGRGGFEYWGQGTKVTVSS”, the “polyreactivity (PSR sort gate)” value is given as “high polyreactivity”.

For the sequence “QVQLVESGGGLVQAGGSLRLSCAASGSIFDFYAMGWYRQAPGKEREFVAAITQSGASTYADSVKGRFTISRDNAKNTVYLQMNSLKPEDTAVYYCNADSGGRGAPTSTYDYWGQGSQVTVSS”, the “polyreactivity (PSR sort gate)” value is listed as “low polyreactivity”.

For “QVQLVESGGGLVQAGGSLRLSCAASGSIFDGNAMGWYSQAPGKERELVAAITTDYRTYYADSVKGRFTISRDNAKNTFYLQMNSLKPEDTAVYYCNVVIYYFNSRTVYYDYDYWGQGTQVTVSS”, the “polyreactivity (PSR sort gate)” value is recorded as “high polyreactivity”.

Consider “QVQLVESGGGLVQAGGSLRLSCAASGSIFDGYAMGWYRQAPGKERELVASISSGGSTNYADSVKGRFTISRDNAKNTVYLQMNSLKPEDTAVYYCAAEWVWYKWEFEYWGQGTQVTVSS”, for which the “polyreactivity (PSR sort gate)” value is “high polyreactivity”.

For “QVQLVESGGGLVQAGGSLRLSCAASGSIFDGYAMGWYSQAPGKEREFVASIRFSTGRTYYADSVKGRFTISRDNAKNTVYFQMNSLKPEDTAVYYCNAPQGFVWRYSSWGPYDYWGQGTQVTVSS”, the “polyreactivity (PSR sort gate)” value is “high polyreactivity”.

For “QVQLVESGGGLVQAGGSLRLSCAASGSIFDIYAMGWYRQAPGKERELVAAISWNGGDTTYADSVKGRFTISRDNEKNTVYLQMNSLKPEYTAVYYCAADLGYWVADYYWGQGTQVTVSS”, the “polyreactivity (PSR sort gate)” value is reported as “high polyreactivity”.

Regarding “QVQLVESGGGLVQAGGSLRLSCAASGSIFDLNAMGWYRQAPGKERELVAAISKSGGSTYYADSVKGRFTISRDNAKNTVYLQMNSLKPEDTAVYYCAARYHEPGYSYKFWGQGTQVTVSS”, the “polyreactivity (PSR sort gate)” value is “low polyreactivity”.

As for “QVQLVESGGGLVQAGGSLRLSCAASGSIFDLNVMGWYRQAPGKERELVAAITWSGGSTYYADSVKGRFTISRDNAKNTVYLQMNSLKPEDTAVDYCAADTASGDTLRPTLLYDYWGQGTQVTVSS”, the “polyreactivity (PSR sort gate)” value is reported as “low polyreactivity”.

Take “QVQLVESGGGLVQAGGSLRLSCAASGSIFDLYDMGWYRQAPGKERELVAAISLIGGSTSYADSVKGRFTISRDNAKNTVYLQMNSLKPEDTAVYYCAVEKFFRAEYDHWGQGTQVTVSS”: the “polyreactivity (PSR sort gate)” value is reported as “low polyreactivity”.

As for “QVQLVESGGGLVQAGGSLRLSCAASGSIFDPNAMGWYRQAPGKERELVAVITWSSSSTYYADSVKGRFTISRDNAKNTVYLQMNSLKPEDTAVYYCAAVVQGTTVWWGYDYWGQGTLVTVSS”, the “polyreactivity (PSR sort gate)” value is “low polyreactivity”.

For “QVQLVESGGGLVQAGGSLRLSCAASGSIFDRNAMGWYRQAPGKERELVAAISRSSGNTYYADSVKGRFTISRDNAKNTVYLQMNSLNPEDTAVYYCNKAVSYGTYKYYYWGQGTQVTVSS”, the “polyreactivity (PSR sort gate)” value is recorded as “high polyreactivity”.

On to “QVQLVESGGGLVQAGGSLRLSCAASGSIFDRYAMGWYRQAPGKDRELVAAITWSGGSTRYADSVNGRFTISRDNAKNTVYLQMNILKPEDTAVYYCPASSTRWKVYYWGQGTQVTVSS”, for which the “polyreactivity (PSR sort gate)” value is recorded as “high polyreactivity”.

For the sequence “QVQLVESGGGLVQAGGSLRLSCAASGSIFDSNAMGWYRQAPGKERELVASIDRGGDTNYADSVKGRFTISRDNAKNTVYLQMNSLKPEDTAVYYCAAYYYKWVWIGMDYWGQGTQVTVSS”, the “polyreactivity (PSR sort gate)” value was “low polyreactivity”.

In the case of “QVQLVESGGGLVQAGGSLRLSCAASGSIFDSYAMGWSRQAPGKERELVAAISWSGGSTYYADSVKGRFTISRDNAKNTVSLQMNSLKPEDTAVYYCNTDWADYYYYTDYDYWGQGTQVTVSS”, the “polyreactivity (PSR sort gate)” value is listed as “high polyreactivity”.

With “QVQLVESGGGLVQAGGSLRLSCAASGSIFDSYAMGWYRQAPGKERELVADITSDGSTHYADSVKGRFTISRDNAKNSVYLQMNSLKPEDTAVYYCAAALPLVDFYDYWGQGTQVTVSS”, the “polyreactivity (PSR sort gate)” value was “low polyreactivity”.

With “QVQLVESGGGLVQAGGSLRLSCAASGSIFDTNAMGWYRQAPGKERELVAAINDSGGSTDYADSVKGRFTISRDNAKNTVYLQMNSLKPEDTAVYYCAADIYYTGYNGPEYYWVGMDYWGQGTQVTVSS”, the “polyreactivity (PSR sort gate)” value is “low polyreactivity”.

With “QVQLVESGGGLVQAGGSLRLSCAASGSIFDTYAMGWYRQAPGKERELVAAIRQSGARTYYADSVKGRFTISRDKAKNTVYLQMNSLKPEDTAVYYCAVSYHHYQTWYNYWGQGTQVTVSS”, the “polyreactivity (PSR sort gate)” value is reported as “high polyreactivity”.

Turning to “QVQLVESGGGLVQAGGSLRLSCAASGSIFDTYAMGWYRQAPGKERELVAAITQSGDRTYYADSVKGRFTISRDNAKNTVYLQMNSLKPEDTAVYYCNTRRGSAWSSDYWGQGTQVTVSS”, the “polyreactivity (PSR sort gate)” value is listed as “low polyreactivity”.

For the sequence “QVQLVESGGGLVQAGGSLRLSCAASGSIFDTYAMGWYRQAPGKERELVATITRSGARTYYADSVKGRFTISRDNAKITVYLQMNSLKTEDTAVYYCAALYYDDFGYEYDYWGQGTQVTVSS”, the “polyreactivity (PSR sort gate)” value is “low polyreactivity”.

“QVQLVESGGGLVQAGGSLRLSCAASGSIFDTYAMGWYRQAPGKERELVATITRSGARTYYADSVKGRFTISRDNAKNTVYLQMNSLKPEDTAVYYCAALYYDDFGYEYDYWGQGTQVTVSS”: the “polyreactivity (PSR sort gate)” value was “low polyreactivity”.

Take “QVQLVESGGGLVQAGGSLRLSCAASGSIFDTYVMGWYRQAPGKERELVAAISSVSSTYADSVKGRFTISRDNAKNTVYLQLNSLKPVDTAVYYCAADSRSPGHDYWGQGTQVTVSS”: the “polyreactivity (PSR sort gate)” value is “low polyreactivity”.

In the case of “QVQLVESGGGLVQAGGSLRLSCAASGSIFDVNAMGRYRQAPGKERELVAAISDSGGSTYYADSVKGRFTISRDNAKNTVYLQMNSLKPEDTAVYYCNADWSWYNYYDFDYWGQGTQVTVSS”, the “polyreactivity (PSR sort gate)” value is “low polyreactivity”.

Regarding “QVQLVESGGGLVQAGGSLRLSCAASGSIFDVNAMGWYRQAPGKERELVAAITSSGGSTYYADSVKGRFTISRDNAKNTVYLQMNSLKPEDTAVYYCAAYSLYTMYWGQGTQVTVSS”, the “polyreactivity (PSR sort gate)” value was “low polyreactivity”.

With “QVQLVESGGGLVQAGGSLRLSCAASGSIFDVNGMGWYRQAPGKERELVATISSDGSTNYADSVKGRFTISRDNAKNTVYLQMNSLKPEDTAVYYCAADRHQVSVISTEVYWGQGTQVTVSS”, the “polyreactivity (PSR sort gate)” value was “low polyreactivity”.

In the case of “QVQLVESGGGLVQAGGSLRLSCAASGSIFDVYAMGWYRPAPGKEREFVATITTSGGNTYYADSVKGRFTISRDHAKNTVHLQMNSLKPEDTAVYYCAKDRVKSPYLVYDSWGQGTQGTVSS”, the “polyreactivity (PSR sort gate)” value is given as “low polyreactivity”.

For “QVQLVESGGGLVQAGGSLRLSCAASGSIFDWNAMGWYRKAPGKERELVASITGSGGGTNYADSVKGRFTISRDNAKNTVYLQMNSLKPEDTAVYYCAAEVDYSYWPEYARKYYYWGQGTQVTVSS”, the “polyreactivity (PSR sort gate)” value is recorded as “low polyreactivity”.

Take “QVQLVESGGGLVQAGGSLRLSCAASGSIFDWYAMGWYRQAPGKEGELVAAISSGDSTYYADSVKGRFTISRDNAKITVYLQMNSLKPEDTAVYDCAAEFHDDHPSFDYWGQGTQVTVSS”: the “polyreactivity (PSR sort gate)” value is given as “low polyreactivity”.

“QVQLVESGGGLVQAGGSLRLSCAASGSIFDWYAMGWYRQAPGKEGELVAAISSGDSTYYADSVKGRFTISRDNAMNTVYLQMNSLKPEDTAVYYCAAVTKLSGIRYNYWGQGTQVTVSS”: the “polyreactivity (PSR sort gate)” value is “low polyreactivity”.

In the case of “QVQLVESGGGLVQAGGSLRLSCAASGSIFDWYAMGWYRQAPGKERELVAAIDSSGSSTYYADSVKGRFTISRDNAKNTVYLQMNSLKPEDNAVYYCAADSDWIRDWFGSLYGSDYWGQGSQVTVSS”, the “polyreactivity (PSR sort gate)” value was “low polyreactivity”.

Consider “QVQLVESGGGLVQAGGSLRLSCAASGSIFDWYDMGWYRQAPGKEGELVAAISSGDSTYYADSVKGRFTISRDNAKNTVYLQMNSLKPEDTAVYYCAAVTKLSGIRYNYWGQGTQVTVSS”, for which the “polyreactivity (PSR sort gate)” value is “low polyreactivity”.

For the sequence “QVQLVESGGGLVQAGGSLRLSCAASGSIFDYNAMGWYTQAPGKERELVAAITSGGSTNYADSVKGRFTISRDNAKNTVYLQMNTLKPEDTAVYYCAADHDYYPTNLDYWGQGTQVTVSS”, the “polyreactivity (PSR sort gate)” value was “low polyreactivity”.

On to “QVQLVESGGGLVQAGGSLRLSCAASGSIFDYNSMGMYIQAPGKERELVAAISSGGTTYYADSVKGRFTISLDNAKNTVYLHIKSLKPEDTDVYYCAARRAGWWGFYYWGQCTQVTVSS”, for which the “polyreactivity (PSR sort gate)” value is listed as “high polyreactivity”.

As for “QVQLVESGGGLVQAGGSLRLSCAASGSIFDYNVMGWYRKAPGKERELVAAITYNDGSTYYADSVKGRFTISRDNAKNTVYLQMNSLKPEDTAVYYCAADYPGGGIYWYFYVYDYDYWGQGTQVTVSS”, the “polyreactivity (PSR sort gate)” value is on record as “low polyreactivity”.

Regarding “QVQLVESGGGLVQAGGSLRLSCAASGSIFDYYAMGWYRPAPGKERELVAAISDSGGSTYYADSVKGRFTISRDNAKNTVYLQMNSLKPEDTAVYYCNAVPRYQATWQESYDYDYWGQGTQVTVSS”, the “polyreactivity (PSR sort gate)” value is “high polyreactivity”.

“QVQLVESGGGLVQAGGSLRLSCAASGSIFDYYAMGWYRQAPGKERELVASISWIGDRTYYADSVKGRFTISRDNAKNTVYLQMNSLKPEDTAVYYCATDYYEDWRGYEVYWYRPYDYWGQGTQVSVSS”: the “polyreactivity (PSR sort gate)” value was “high polyreactivity”.

Regarding “QVQLVESGGGLVQAGGSLRLSCAASGSIFDYYAMGWYRQAPGKERELVSTYYADSVKGRFTISRDNAKNTVYLQMNSLKPEDTAVYYCAKDRGTTGIRDGPAASLYGYEYWGQGTQVTVSS”, the “polyreactivity (PSR sort gate)” value is listed as “low polyreactivity”.

“QVQLVESGGGLVQAGGSLRLSCAASGSIFEFNAMGWYRQAHGKERELVSAITWSGTSTYYADSVKGRFTISRDNAKNTVYLQMKSLKPEDTAVYYCGADSTDYFYWGQGTQVTVSS”: the “polyreactivity (PSR sort gate)” value is on record as “high polyreactivity”.

Take “QVQLVESGGGLVQAGGSLRLSCAASGSIFEGNGMGWYIQAPGKERELVAAITFRSGSTYYADSVKGRFTISLDNAKNTVYLQMNSLKPEDTAVYYCAADEYYQVSAYDYWGQGTQVTVSS”: the “polyreactivity (PSR sort gate)” value was “low polyreactivity”.

In the case of “QVQLVESGGGLVQAGGSLRLSCAASGSIFEKYAMGWYRQAPGKERELVASISKRGGSTNYADSVKGRFTISRDNAKNTVYLQMNSLKPVDTAVYYCAAPANRWSTRWYYDGYDYWGQGTQVTVSS”, the “polyreactivity (PSR sort gate)” value was “high polyreactivity”.

In the case of “QVQLVESGGGLVQAGGSLRLSCAASGSIFENYAMGWYRQAPGKERELVAAITSSGASTYYADSVKGHFTISRDNEKNTVYIQMNILKPEDTAVYYCAADSAFYDEYQEDYWGQGTQVTVSS”, the “polyreactivity (PSR sort gate)” value is listed as “low polyreactivity”.
